These results are taken from article PMC6681757.

Assay [1] addresses isolated bovine cardiac native thin filaments (NTFs) (bovine) (UniProt Q3ZC07). In words: co-sedimentation; high-velocity cosedimentation with isolated bovine cardiac NTFs, presence of 32 μmol/L CaCl2 (pCa 4.5).
Assay [2] has the same target. Briefly: co-sedimentation; high-velocity cosedimentation with isolated bovine cardiac NTFs, absence of calcium (pCa 9).
Assay [3] deals with myosin S2Δ, the first 126 amino acids of myosin S2 (cardiac myosin).
Assay [4] addresses isolated bovine cardiac native thin filaments (NTFs) (bovine) (UniProt Q3ZC07).
In assay [5] the target is myosin S2Δ, the first 126 amino acids of myosin S2 (cardiac myosin). In words: MST; C1mC2 species (or native full-length cMyBP-C) titrated against myosin S2Δ; normalized MST curves; conditions in SI Appendix.

Take “C1mC2 tris-phosphorylated by PKA on S288, S279 and S313 (C1mC2-3P) (domain or fragment)”: the Kd in assay [1] and in assay [2] was 60 µM throughout.

The substance “C1mC2, recombinant fragment of rat cardiac myosin binding protein-C containing domains C1, the m-motif and C2, unphosphorylated (domain or fragment)” came in with an EC50 of activation of thick filament structure (RLC BC probe orientation) in ventricular trabeculae, pCa 9 in assay [3] of 10 μmol/L. Besides, in assay [4], the EC50 of activation of NTF-stimulated myosin S1 ATPase in the absence of calcium (pCa 9) stood at 1 μmol/L; the IC50 of inhibition of NTF-stimulated myosin S1 ATPase in the absence of calcium (pCa 9), [C1mC2] > 2 μmol/L was 3 μmol/L; the IC50 of inhibition of myosin S1-NTF ATPase during full calcium activation (pCa 4) was determined as 2 μmol/L; the maximal inhibition of myosin S1-NTF ATPase during full calcium activation (pCa 4) turned out to be 50%. In addition, in assay [2], the Kd was found to be 20 µM. Also, in assay [5], the KD of the high-affinity binding site was found to be 20.7 µM and the KD of the low-affinity binding site was above 400 µM.

Consider “C1mC2 bis-phosphorylated by PKA on S288 and S279 (C1mC2-2P) (domain or fragment)”, for which, in assay [4], the EC50 of activation of NTF-stimulated myosin S1 ATPase in the absence of calcium (pCa 9) was 5 μmol/L. Also, in assay [2], the equilibrium dissociation constant (Kd) was 20 µM.

As for “C1mC2 monophosphorylated on S288 (C1mC2-1P) (domain or fragment)”, in assay [4], the EC50 of activation of NTF-stimulated myosin S1 ATPase in the absence of calcium (pCa 9) was 2 μmol/L. Further, the Kd came out at 20 µM in assay [2] and 30 µM in assay [5].

As to “C1mC2-S288A, unphosphorylated (domain or fragment)”, the dissociation constant Kd in assay [5] turned out to be 20 µM.

For “C1mC2 monophosphorylated on S308 by PKCε (domain or fragment)”, the Kd in assay [2] turned out to be 20 µM; in assay [5] it was 30 µM.

“λ-protein phosphatase–treated native full-length cMyBP-C isolated from rat ventricular tissue (from UniProt P56741 1-1274) (natural protein)” registered a Kd in assay [5] of 24.2 µM.
